{"source": "patent US20260097113A1", "about": "(Pfizer, published 2026)", "key": {"[1]": {"biological_target": "RSV A + RSV B bivalent composition (RSV subtype A; RSV subtype B)", "assay": "AM14 Fab titration by SEC; Target cycle; 1 M 40°C (second value)"}, "[2]": {"biological_target": "RSV A + RSV B bivalent composition (RSV subtype A; RSV subtype B)", "assay": "AM14 Fab titration by SEC; High-Slow 1 cycle; 1 M 2-8°C (second value)"}, "[3]": {"biological_target": "RSV A + RSV B bivalent composition (RSV subtype A; RSV subtype B)", "assay": "AM14 Fab titration by SEC; composition of Table 14; pre-lyo composition"}, "[4]": {"biological_target": "RSV A + RSV B bivalent composition (RSV subtype A; RSV subtype B)", "assay": "AM14 Fab titration by SEC; Target cycle; 8 M 40°C"}, "[5]": {"biological_target": "RSV A + RSV B bivalent composition (RSV subtype A; RSV subtype B)", "assay": "AM14 Fab titration by SEC; High-Slow 2 cycle; 1 M 25°C (second value)"}, "[6]": {"biological_target": "RSV A + RSV B bivalent composition (RSV subtype A; RSV subtype B)", "assay": "AM14 Fab titration by SEC; High-Slow 1 cycle; T0"}, "[7]": {"biological_target": "T1, RSV F protein of subtype A comprising a polypeptide of SEQ ID NO: 1 and a polypeptide of SEQ ID NO: 2 (RSV subtype A, UniProt P11209 137-513; P03420 26-109)", "T1 construct": "Stabilized prefusion F trimer made of three F2-F1 heterodimers; Produced recombinantly in CHO cells; also called RSV A; RSVA", "T1 chain 1": "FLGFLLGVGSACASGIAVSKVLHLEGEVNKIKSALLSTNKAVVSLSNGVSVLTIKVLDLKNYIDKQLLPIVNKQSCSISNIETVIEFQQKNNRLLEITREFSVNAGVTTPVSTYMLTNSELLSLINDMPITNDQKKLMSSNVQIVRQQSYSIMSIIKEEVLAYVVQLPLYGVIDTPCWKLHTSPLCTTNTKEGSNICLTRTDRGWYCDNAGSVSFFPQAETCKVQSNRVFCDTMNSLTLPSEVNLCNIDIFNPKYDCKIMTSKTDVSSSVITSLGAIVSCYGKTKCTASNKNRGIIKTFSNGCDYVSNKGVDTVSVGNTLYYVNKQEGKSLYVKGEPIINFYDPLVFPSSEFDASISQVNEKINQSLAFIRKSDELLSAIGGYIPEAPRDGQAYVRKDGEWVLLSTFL", "T1 chain 2": "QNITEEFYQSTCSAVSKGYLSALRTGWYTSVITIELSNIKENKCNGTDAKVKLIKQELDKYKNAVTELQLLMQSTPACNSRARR", "assay": "AM14 ELISA; F5 (pH 6, 100 mM NaCl, 9.0% sucrose); T0"}, "[8]": {"biological_target": "T1, RSV F protein of subtype A comprising a …", "assay": "AM14 ELISA; F2 (pH 8, 0 mM NaCl, 0% sucrose); 2 wk 5°C"}, "[9]": {"biological_target": "T1, RSV F protein of subtype A comprising a …", "assay": "AM14 ELISA; F13 (pH 7, 100 mM NaCl, 4.5% sucrose); 1 wk 25°C"}, "[10]": {"biological_target": "T1, RSV F protein of subtype A comprising a …", "assay": "AM14 ELISA; F4 (pH 6, 50 mM NaCl, 4.5% sucrose); 2 wk 25°C"}, "[11]": {"biological_target": "T1, RSV F protein of subtype A comprising a …", "assay": "AM14 ELISA; F2 (pH 8, 0 mM NaCl, 0% sucrose); T0"}, "[12]": {"biological_target": "T1, RSV F protein of subtype A comprising a …", "assay": "AM14 ELISA; F7 (pH 6, 100 mM NaCl, 0% sucrose); 1 wk 5°C"}, "[13]": {"biological_target": "T1, RSV F protein of subtype A comprising a …", "assay": "AM14 ELISA; F15 (pH 6, 0 mM NaCl, 9% sucrose); 1 wk 25°C"}, "[14]": {"biological_target": "T1, RSV F protein of subtype A comprising a …", "assay": "AM14 ELISA; F11 (pH 7, 50 mM NaCl, 9.0% sucrose); 1 wk 25°C"}, "[15]": {"biological_target": "T1, RSV F protein of subtype A comprising a …", "assay": "AM14 ELISA; F19 (pH 7, 50 mM NaCl, 3% trehalose + 3% mannitol); T0"}, "[16]": {"biological_target": "T1, RSV F protein of subtype A comprising a …", "assay": "AM14 ELISA; F4 (pH 6, 50 mM NaCl, 4.5% sucrose); T0"}, "[17]": {"biological_target": "T1, RSV F protein of subtype A comprising a …", "assay": "AM14 ELISA; F4 (pH 6, 50 mM NaCl, 4.5% sucrose); 1 wk 5°C"}}}
{"molecule": "AM14 Fab", "values": [{"measurement": "Prefusion Content (%)", "setting": "[1]", "value": 66, "unit": "%"}, {"measurement": "Prefusion Content (%)", "setting": "[2]", "value": 44, "unit": "%"}, {"measurement": "Prefusion Content (%)", "setting": "[3]", "value": 77, "unit": "%"}, {"measurement": "Prefusion Content (%)", "setting": "[4]", "value": 67, "unit": "%"}, {"measurement": "Prefusion Content (%)", "setting": "[5]", "value": 59, "unit": "%"}, {"measurement": "Prefusion Content (%)", "setting": "[6]", "value": 64, "unit": "%"}]}
{"molecule": "AM14 (trimeric prefusion specific antibody of the AM14 ELISA) (antibody, V domains shown, Antibody as used in the AM14 ELISA, detected with an HRP-labeled secondary antibody) VH: EVQLVESGGGVVQPGRSLRLSCAASGFSFSHYAMHWVRQAPGKGLEWVAVISYDGENTYYADSVKGRFSISRDNSKNTVSLQMNSLRPEDTALYYCARDRIVDDYYYYGMDVWGQGATVTVSS VL: DIQMTQSPSSLSASVGDRVTITCQASQDIKKYLNWYHQKPGKVPELLMHDASNLETGVPSRFSGRGSGTDFTLTISSLQPEDIGTYYCQQYDNLPPLTFGGGTKVEIKR", "values": [{"measurement": "AM14 prefusion content (%), relative to standard", "setting": "[7]", "value": 91, "unit": "%"}, {"measurement": "AM14 prefusion content (%), relative to standard", "setting": "[8]", "value": 75, "unit": "%"}, {"measurement": "AM14 prefusion content (%), relative to standard", "setting": "[9]", "value": 90, "unit": "%"}, {"measurement": "AM14 prefusion content (%), relative to standard", "setting": "[10]", "value": 86, "unit": "%"}, {"measurement": "AM14 prefusion content (%), relative to standard", "setting": "[11]", "value": 86, "unit": "%"}, {"measurement": "AM14 prefusion content (%), relative to standard", "setting": "[12]", "value": 61, "unit": "%"}, {"measurement": "AM14 prefusion content (%), relative to standard", "setting": "[13]", "value": 99, "unit": "%"}, {"measurement": "AM14 prefusion content (%), relative to standard", "setting": "[14]", "value": 91, "unit": "%"}, {"measurement": "AM14 prefusion content (%), relative to standard", "setting": "[15]", "value": 93, "unit": "%"}, {"measurement": "AM14 prefusion content (%), relative to standard", "setting": "[16]", "value": 57, "unit": "%"}, {"measurement": "AM14 prefusion content (%), relative to standard", "setting": "[17]", "value": 76, "unit": "%"}]}
